Measurements published in patent US20100143349A1 (Pfizer, published 2010).

Columns and labels:
[1] = biological target: T1, human RAGE expressed on CHO cells (human, UniProt Q15109 23-404); experiment: cell ELISA on CHO-RAGE cells, A450 corrected for control CHO cells
T1 construct: whole, on cells; also called CHO-RAGE cells; cell surface expressed human RAGE
Protocol: Stably transfected Chinese Hamster Ovary (CHO) cells were engineered to express murine and human RAGE full length proteins. The murine and human RAGE cDNAs were cloned into the mammalian expression vector pSMED, linearized and transfected into CHO cells using lipofectin methods (Kaufman, R. J., 1990, Methods in Enzymology 185:537-66; Kaufman, R. J., 1990, Methods in Enzymology 185:487-511; Pittman, D. D. et al., 1993, Methods in Enzymology 222: 236). Cells were further selected in 20 nM methotrexate and cell extracts were harvested from individual clones and analyzed by SDS sodium dodecyl sulfate-polyacrylamide gel electrophoresis (SDS-PAGE) and Western blotting to confirm expression. […] Absorbance 450 nm values were corrected for the same clones binding to control CHO cells not expressing RAGE. EC50 values were calculated after curve fitting using GraphPad prism and are expressed in μg/ml.

hRAGE-Fc = biological target: T2, hRAGE-Fc (human, UniProt Q15109 23-342, biotin label in the selections and HTRF assays); experiment: IC50 of parental M4 scFv-Fc over IC50 of clone, HTRF competition
T2 construct: extracellular domain; also called biotin labeled hRAGE-Fc; Biotin-labeled RAGE-Fc; not shown: Fc part

HU-RAGE-SA [2] = biological target: T3, HU-RAGE-SA (human, UniProt Q15109 23-342); experiment: BIAcore kd against parental M4 scFv-Fc
T3 construct: extracellular domain; Directly immobilized on a CM5 chip (~100 RU); also called hRAGE-SA; soluble human streptavidin-tagged RAGE; not shown: streptavidin tag (SA)

HU-RAGE-SA [3] = biological target: T3, HU-RAGE-SA; experiment: BIAcore, 10 nM scFv-Fc over directly immobilized HU-RAGE-SA, 1:1 fit

T2 sequence (Q15109 23-342): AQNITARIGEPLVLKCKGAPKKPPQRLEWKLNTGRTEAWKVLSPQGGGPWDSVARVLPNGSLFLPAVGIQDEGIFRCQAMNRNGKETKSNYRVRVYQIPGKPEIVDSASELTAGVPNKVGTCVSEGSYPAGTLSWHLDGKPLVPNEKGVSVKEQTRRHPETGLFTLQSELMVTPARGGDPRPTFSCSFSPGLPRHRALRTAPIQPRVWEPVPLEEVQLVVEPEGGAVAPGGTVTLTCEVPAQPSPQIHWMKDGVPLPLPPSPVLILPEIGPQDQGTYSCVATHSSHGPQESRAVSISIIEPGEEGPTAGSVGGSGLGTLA
T3 sequence (Q15109 23-342): as above
T1 sequence (Q15109 23-404): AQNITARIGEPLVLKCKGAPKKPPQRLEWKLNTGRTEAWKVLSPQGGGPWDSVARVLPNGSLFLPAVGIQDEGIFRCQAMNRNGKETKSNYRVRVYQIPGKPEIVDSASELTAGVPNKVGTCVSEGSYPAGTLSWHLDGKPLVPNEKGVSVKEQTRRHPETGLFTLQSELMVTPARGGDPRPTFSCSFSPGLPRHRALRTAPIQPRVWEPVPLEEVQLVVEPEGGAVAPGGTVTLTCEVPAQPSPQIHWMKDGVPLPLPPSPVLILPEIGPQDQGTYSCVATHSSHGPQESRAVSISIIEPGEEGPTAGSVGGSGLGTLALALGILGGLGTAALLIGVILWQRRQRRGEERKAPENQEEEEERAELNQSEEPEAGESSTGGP

Row | Binder | EC50 [1] [µg/mL] | Fold gain scFv-Fc (hRAGE) (hRAGE-Fc) [fold] | Fold change in kd (HU-RAGE-SA [2]) [fold] | koff (HU-RAGE-SA [3]) [s⁻¹]
1 | 6B6 scFv-Fc fusion (Fc fusion, Substitutions derived from the printed HCDR3; not shown: wild-type human IgG Fc (hinge and constant domains)) DIQMTQSPSSLSASVGDRVTITCRASQDVGIYVNWFQQKPGKAPRRLIYRATNLADGVPSRFSGSRSGTDFTLTISSLQPEDFATYYCLEFDEHPLTFGGGTKVEIKDGGGSGGGGSGGGGSSEVQLVESGGGLVQPGGSLRLSCAASGFTFNNYWMTWVRQAPGKGLEWVASIDNSGDNTYYPDSVKDRFTISRDNAKNSLYLQMNSLRAEDTAVYYCARGGDIIISLDWWGQGTLVTVSS | 0.0285 | 7.6 | 20.8 | 0.00141
2 | 6C2 scFv-Fc fusion (Fc fusion, not shown: wild-type human IgG Fc (hinge and constant domains)) DIQMTQSPSSLSASVGDRVTITCRASQDVGIYVNWFQQKPGKAPRRLIYRATNLADGVPSRFSGSRSGTDFTLTISSLQPEDFATYYCLEFDEHPLTFGGGTKVEIKDGGGSGGGGSGGGGSSEVQLVESGGGLVQPGGSLRLSCAASGFTFNNYWMTWVRQAPGKGLEWVASIDNSGDNTYYPDSVKDRFTISRDNAKNSLYLQMNSLRAEDTAVYYCARGGDIKVSLDRWGQGTLVTVSS | 0.0285 | 9.4 | 19.2 | 0.00153
3 | 6C3 scFv-Fc fusion (Fc fusion, not shown: wild-type human IgG Fc (hinge and constant domains)) DIQMTQSPSSLSASVGDRVTITCRASQDVGIYVNWFQQKPGKAPRRLIYRATNLADGVPSRFSGSRSGTDFTLTISSLQPEDFATYYCLEFDEHPLTFGGGTKVEIKDGGGSGGGGSGGGGSSEVQLVESGGGLVQPGGSLRLSCAASGFTFNNYWMTWVRQAPGKGLEWVASIDNSGDNTYYPDSVKDRFTISRDNAKNSLYLQMNSLRAEDTAVYYCARGGDITLGLDVWGQGTLVTVSS | 0.155 | 38.6 | 60 | 0.000488

Now from value to binder:

Row | EC50 [1] [µg/mL] | Fold gain scFv-Fc (hRAGE) (hRAGE-Fc) [fold] | Fold change in kd (HU-RAGE-SA [2]) [fold] | koff (HU-RAGE-SA [3]) [s⁻¹] | Binder
4 | 0.092 | 8.8 | 51.8 | 0.000566 | 10D8 scFv-Fc fusion (Fc fusion, also called 10D8 (b); not shown: wild-type human IgG Fc (hinge and constant domains)) DIQMTQSPSSLSASVGDKVTITCRASQDVGFYVNWFQQKPGKAPRRLIYRATNLADGVPSRFSGSRSGTDFTLTISSLQPEDFATYYCLEFDEHPLTFGGGTKVEIKDGGGSGNGGSGGGGSSEVQLVESGGELVQPGGSLRLSCAASGFTFNNYWMTWVRQAPGKGLEWVASIDNSGDNTYYPDSVKDRFTISRDNAKNSLYLQMNSLRAEDTAVYYCARGGDITTGFDYWGQGTLVTVSS
5 | 0.077 | 5.1 | 3.9 | 0.00344 | 8G9 scFv-Fc fusion (Fc fusion, not shown: wild-type human IgG Fc (hinge and constant domains)) DIQMTQSPSSLSASVGDRVTITCRASQDVGIYVNWFQQKPGKAPRRLIYRATNLADGVPSRFSGSRSGTDFTLTISSLQPEDFATYYCLEFDEHPLTFGGGTKVEIKDGGGSGGGGSGGGGSSEVQLVESGGGLVQPGSSLRLSCAASGFTFNNYWMTWVRQAPGKGLEWVASIDNSGDNTYYPDSVKDRFTISRDNAKNSLYLQMNSLRAEDTAVYYCARGGDITTGLDYWGQGTLVTVSS
6 | 0.133 | 5 | 0.28 | 0.105 | 10G10 scFv-Fc fusion (Fc fusion, not shown: wild-type human IgG Fc (hinge and constant domains)) DIQMTQSPSSLSASVGDRVTITCRASQDVGIYVNWFQQKPGKAPRRLIYRATNLADGVPSRFSGSRSGTDFTLTISSLQPEDFATYYCLEFDEHPLTFGGGTRVEIKDGGGSGGGGSGGGGSSEVQLVESGGGLVQPGGSLRLSCAASGFTFNNYWMSWVRQAPGKGLEWVASIDNSGENTYYPDSVKDRFTISRDNAKNSLYLQMNSLRAEDTAVYYCARGGDITTGFDYWGQGTLVTVSS
